Measurements reported in PMC7467569, “The Progesterone 5β-Reductase/Iridoid Synthase Family: A Catalytic Reservoir for Specialized Metabolism across Land Plants” (ACS Chemical Biology, 2020).

Tests used:
Test in all cases: purified protein
purified protein [1] = substrate: C/C(C=O)=C\CC/C(C)=C/C=O; assay type: biochemical, Catharanthus roseus; conditions: 250 μM NADPH, 50 mM HEPES/NaOH pH 7.0, 100 mM NaCl, 25 °C, 0.1% tetrahydrofuran
purified protein [2] = substrate: CC(=O)[C@H]1CC[C@H]2[C@@H]3CCC4=CC(=O)CC[C@]4(C)[C@H]3CC[C@]12C; assay type: biochemical, Coccomyxa subellipsoidea; conditions: 250 μM NADPH, 50 mM HEPES/NaOH pH 7.0, 100 mM NaCl, 25 °C, 1.5% ethanol
purified protein [3] = substrate: C/C(C=O)=C\CC/C(C)=C/C=O; assay type: biochemical, Coccomyxa subellipsoidea; conditions: 250 μM NADPH, 50 mM HEPES/NaOH pH 7.0, 100 mM NaCl, 25 °C, 0.1% tetrahydrofuran
purified protein [4] = substrate: CC(=O)[C@H]1CC[C@H]2[C@@H]3CCC4=CC(=O)CC[C@]4(C)[C@H]3CC[C@]12C; conditions: 250 μM NADPH, 50 mM HEPES/NaOH pH 7.0, 100 mM NaCl, 25 °C, 1.5% ethanol
purified protein [5] = substrate: C/C(C=O)=C\CC/C(C)=C/C=O; conditions: 250 μM NADPH, 50 mM HEPES/NaOH pH 7.0, 100 mM NaCl, 25 °C, 0.1% tetrahydrofuran

B1: Catharanthus roseus 5 (PRISE5, ISY) (Catharanthus roseus) (protein)
chain: MSWWWKRSIGAGKNLPNQNKENGVCKSYKSVALVVGVTGIVGSSLAEVLKLPDTPGGPWKVYGVARRPCPVWLAKKPVEYIQCDVSDNQETISKLSPLKDITHIFYVSWIGSEDCQTNATMFKNILNSVIPNASNLQHVCLQTGIKHYFGIFEEGSKVVPHDSPFTEDLPRLNVPNFYHDLEDILYEETGKNNLTWSVHRPALVFGFSPCSMMNIVSTLCVYATICKHENKALVYPGSKNSWNCYADAVDADLVAEHEIWAAVDPKAKNQVLNCNNGDVFKWKHIWKKLAEEFGIEMVGYVEGKEQVSLAELMKDKDQVWDEIVKKNNLVPTKLKEIAAFWFADIAFCSENLISSMNKSKELGFLGFRNSMKSFVSCIDKMRDYRFIP
notes: codon-optimized gene from earlier study in pOPINF, N-terminal His6 tag (no cleavage told), E. coli
Km (purified protein [1]): 8.5 ± 1.5 µM

B2: Coccomyxa subellipsoidea PRISE (Coccomyxa subellipsoidea C-169) (protein)
chain: GYVALIAGVTGVTGRNLALHLQNCDRWDAVYGGSRRPCGLGGKVKDLRMDLDNKTSLVDTLKGAQDVTHLFFCAYRPTESAATDVTTNFGMFKNVIEAGEGAGLKLKHVSFLSGTKWYGVHIGPVKTPSREDDPRAMSPNFYYDMEDYCIARVTKGADWTWSSVRPNPVCGFSTGSAMNLTMTIAVYASICKELGLPFRFPGSPQAYNVLLEVVDADLLACSMEYISTQPHAGNTSYNVSNGDVFRWSEVWPKLAAFFELPLAEPQKFSMTTMLAYHECVWQKLVEKHGLSKEVASYKDVATWGFGDWVFGQEKDWFSDVNKLRRTGFQEQNLDSAEMFLRQFKELRAAKLIP
notes: full-length synthetic gene in pOPINF, N-terminal His6 tag (no cleavage told), E. coli
Km (purified protein [2]): 23.6 ± 5.8 µM | Km (purified protein [3]): 7.0 ± 1.6 µM | kcat (purified protein [3]): 0.025 ± 0.001 s⁻¹ | kcat/Km (purified protein [3]): 3580 M⁻¹ s⁻¹

B3: Arabidopsis thaliana 1 (PRISE1) (Arabidopsis thaliana) (protein)
chain: SWWWAGAIGAAKKKLDEDEPSQSFESVALIIGVTGIVGNSLAEILPLSDTPGGPWKVYGVARRPRPTWNADHPIDYIQCDVSDAEDTRSKLSPLTDVTHVFYVTWTNRESESENCEANGSMLRNVLQAIIPYAPNLRHVCLQTGTKHYLGPFTNVDGPRHDPPFTEDMPRLQIQNFYYTQEDILFEEIKKIETVTWSIHRPNMIFGFSPYSLMNIVGTLCVYAAICKHEGSPLLFPGSKKAWEGFMTASDADLIAEQQIWAAVDPYAKNEAFNCNNADIFKWKHLWKILAEQFGIEEYGFEEGKNLGLVEMMKGKERVWEEMVKENQLQEKKLEEVGVWWFADVILGVEGMIDSMNKSKEYGFLGFRNSNNSFISWIDKYKAFKIVP
Km (purified protein [4]): 6.0 ± 2.5 µM | Km (purified protein [5]): 41.8 ± 2.75 µM | kcat (purified protein [5]): 0.155 ± 0.004 s⁻¹ | kcat/Km (purified protein [5]): 3710 M⁻¹ s⁻¹

B4: Arabidopsis thaliana 2 (PRISE2) (Arabidopsis thaliana) (protein)
chain: GSENGSLMRRNEVDENVALIFGVTGLVGREIVKTLLMSKPGWRIYGVARNPEINSMTKMYNFISCDLLNASETKQRLSPLQDIVSHVFWVTWSGEFPLDTDECCVQNKTMLMNALDAILPNAKRLKHFSLQTGMKHYVSLVEETMARGEGSSLYYYSEECPRKSSGKNFYYVLEDLLKEKITRSSVVWSVQRPGLLMGSSSRTLYNFMGSLCVYGAMCKYLNLPFVFGGTRECWEESYIDGSDSNLVAEQHIFAATSGKVREKGEAFNAINGVGFTWKEIWPEIGKKLGVQVNETTMFDEGFWFGREMVERKHVWDEIVVKEKLVRTEIEDLANWYFLDALFRCPFKLLGKREKVDRFGFKRKYRTLDSVLYWIDVMRDEKLIPL
Km (purified protein [4]): 5.7 ± 2.3 µM
